Assay results taken from doi:10.1101/2020.10.21.349050.
Like-named read-outs stand apart in the source and are kept apart here.

How the values were obtained:
Assay in all cases: EMSA
[1] = molecular target: T1, GST-Swi6 (Schizosaccharomyces pombe, UniProt P40381 1-328)
T1 sequence: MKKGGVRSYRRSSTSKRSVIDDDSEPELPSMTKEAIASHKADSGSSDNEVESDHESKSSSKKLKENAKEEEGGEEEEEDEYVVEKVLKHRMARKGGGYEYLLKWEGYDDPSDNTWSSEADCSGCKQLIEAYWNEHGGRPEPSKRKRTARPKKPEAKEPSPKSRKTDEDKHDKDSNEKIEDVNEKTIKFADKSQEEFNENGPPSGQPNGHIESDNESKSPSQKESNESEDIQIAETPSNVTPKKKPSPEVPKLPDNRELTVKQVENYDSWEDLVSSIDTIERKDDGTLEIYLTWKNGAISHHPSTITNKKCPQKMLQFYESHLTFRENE

[2] = molecular target: T2, GST-Swi6 3K->3A (Schizosaccharomyces pombe, UniProt P40381 1-328, K242A;K243A;K244A)
T2 sequence: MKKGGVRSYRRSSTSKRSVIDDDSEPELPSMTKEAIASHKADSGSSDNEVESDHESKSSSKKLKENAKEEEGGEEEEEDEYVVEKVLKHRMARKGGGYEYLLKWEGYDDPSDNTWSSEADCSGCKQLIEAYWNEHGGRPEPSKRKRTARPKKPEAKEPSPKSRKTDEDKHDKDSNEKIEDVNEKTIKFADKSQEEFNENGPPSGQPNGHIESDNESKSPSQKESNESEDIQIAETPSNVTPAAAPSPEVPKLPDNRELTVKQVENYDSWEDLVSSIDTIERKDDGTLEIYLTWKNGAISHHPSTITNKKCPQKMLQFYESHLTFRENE

[3] = molecular target: T1, GST-Swi6; remark: listed apart in the source
[4] = molecular target: T1, GST-Swi6; remark: listed apart in the source
[5] = molecular target: T1, GST-Swi6; remark: listed apart in the source
[6] = molecular target: T1, GST-Swi6; remark: listed apart in the source

## UACCGCUUCUCCUUAAUCCA (ssRNA) [D-Rev RNA]
[1]
  binding result: no binding

B1: D-For RNA-DNA hybrid (DNA:RNA)
RNA: UGGAUUAAGGAGAAGCGGUA
DNA: TACCGCTTCTCCTTAATCCA
[2]
  binding result: no binding
[3]
  Kd: 0.09 µM
[4]
  Kd: 0.08 µM
[5]
  Kd: 0.73 µM

## ACAAGUGAUAAGAGUAGGUGU (ssRNA) [E-For RNA]
[6]
  Kd: 2.15 ± 0.1 µM

## UGGAUUAAGGAGAAGCGGUA (ssRNA) [D-For RNA]
[4]
  Kd: 2.45 µM
[5]
  Kd: 1.79 µM
